From US20240294640A1 (published 2024)
Read-outs that look alike come from different tables or passages of the source.

B1: QP372337241461 (antibody)
chain 1: MEFGLSWLFLVAILKGVQCQVQLVQSGAEVKKPGASVKVSCKASGYTFTSYIMHWVRQAPGQGLEWMGYINPYNDGTKYNEKFKGRVTMTRDTSTSTVYMELSSLRSEDTAVYYCARLGFTTRNAMDYWGQGTLVTVSSASTKGPSVFPLAPSSKSTSGGTAALGCLVKDYFPEPVTVSWNSGALTSGVHTFPAVLQSSGLYSLSSVVTVPSSSLGTQTYICNVNHKPSNTKVDKKVEPKSCGGGGSGGGGSGGGGSEVQLLESGGGLVQPGGSLKLSCAASGFTFNTYAMNWVRQAPGKGLEWVARIRSKYNNYATYYADSVKDRFTISRDDSKNTAYLQMNNLKTEDTAVYYCVRHGNFGNSYVSWFAYWGQGTLVTVSSGGGGSGGGGSGGGGSESKYGPPCPPCPAPEFLGGPSVFLFPPKPKDTLMISRTPEVTCVVVDVSQEDPEVQFNWYVDGVEVHNAKTKPREEQFNSTYRVVSVLTVLHQDWLNGKEYKCKVSNKGLPSSIEKTISKAKGQPREPQVYTLPPSQEEMTKNQVSLSCAVKGFYPSDIAVEWESNGQPENNYKTTPPVLDSDGSFFLVSRLTVDKSRWQEGNVFSCSVMHEALHNHYTQKSLSLSLGGSSDYKDDDDK
chain 2: not shown
chain 3: not shown
B2: QP374437481461 (antibody)
chain 1: not shown
chain 2: MEFGLSWLFLVAILKGVQCQVQLVQSGAEVKKPGASVKVSCKASGYTFTSYIMHWVRQAPGQGLEWMGYINPYNDGTKYNEKFKGRVTMTRDTSTSTVYMELSSLRSEDTAVYYCARLGFTTRNAMDYWGQGTLVTVSSASTKGPSVFPLAPSSKSTSGGTAALGCLVKDYFPEPVTVSWNSGALTSGVHTFPAVLQSSGLYSLSSVVTVPSSSLGTQTYICNVNHKPSNTKVDKKVEPKSCESKYGPPCPPCPAPEFLGGPSVFLFPPKPKDTLMISRTPEVTCVVVDVSQEDPEVQFNWYVDGVEVHNAKTKPREEQFNSTYRVVSVLTVLHQDWLNGKEYKCKVSNKGLPSSIEKTISKAKGQPREPQVYTLPPSQEEMTKNQVSLSCAVKGFYPSDIAVEWESNGQPENNYKTTPPVLDSDGSFFLVSRLTVDKSRWQEGNVFSCSVMHEALHNHYTQKSLSLSLGGSSDYKDDDDK
chain 3: not shown
B3: QP090837493746 (bispecific antibody)
chain 1: not shown
chain 2: not shown
chain 3: QVQLVQSGAEVKKPGASVKVSCKASGYTFTSYIMHWVRQAPGQGLEWMGYINPYNDGTKYNEKFKGRVTMTRDTSTSTVYMELSSLRSEDTAVYYCARLGFTTRNAMDYWGQGTLVTVSSASTKGPSVFPLAPSSKSTSGGTAALGCLVKDYFPEPVTVSWNSGALTSGVHTFPAVLQSSGLYSLSSVVTVPSSSLGTQTYICNVNHKPSNTKVDKKVEPKSC
B4: QP091037493746 (bispecific antibody)
chain 1: not shown
chain 2: not shown
chain 3: B3 chain 3
B5: QP090937493746 (bispecific antibody)
chain 1: not shown
chain 2: not shown
chain 3: B3 chain 3

Legend:
[1] = target: T1, CD3 naturally expressed on Jurkat cells (human, UniProt P07766 23-207); test: FACS
T1 sequence (P07766 23-207): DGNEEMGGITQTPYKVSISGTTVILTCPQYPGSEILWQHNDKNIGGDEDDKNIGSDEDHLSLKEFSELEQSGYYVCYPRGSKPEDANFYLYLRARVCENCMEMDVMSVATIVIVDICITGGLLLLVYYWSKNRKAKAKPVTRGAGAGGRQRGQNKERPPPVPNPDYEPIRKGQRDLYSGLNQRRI

[2] = target: T1, CD3 naturally expressed on Jurkat cells; test: FACS; remark: listed apart in the source

Binder	EC50 [1]	EC50 [2]
B1	172 nM	–
B2	133 nM	–
B3	–	64.3 nM
B4	–	34 nM
B5	–	21.9 nM
